From patent US20030181404A1 (BETH ISRAEL DEACONESS MEDICAL CENTER, published 2003)

Tests used:
[1] = biological target: T1, ErbB-3 (human (human breast cancer cell line), UniProt P21860 20-1342, tyrosine-phosphorylated upon HRG stimulation (sites not given)); experiment: co-immunoprecipitation with anti-CHK antibody from HRG-stimulated Flag-CHK MCF-7 lysates, anti-ErbB-3 immunoblot
T1 construct: also called p180 ErbB-3

[2] = biological target: T2, ErbB-4 (human (human breast cancer cell line), UniProt Q15303 26-1308, limits assumed); experiment: co-immunoprecipitation from HRG-stimulated Flag-CHK MCF-7 lysates
T2 construct: also called p180 ErbB-4

[3] = biological target: EGF receptor (EGF-R, ErbB-1) (human (human breast cancer cell lines), UniProt P00533 25-1210); experiment: co-immunoprecipitation with anti-CHK antibodies from EGF-stimulated Flag-CHK MCF-7 lysates, immunoblot

T2 sequence (Q15303 26-1308 limits assumed): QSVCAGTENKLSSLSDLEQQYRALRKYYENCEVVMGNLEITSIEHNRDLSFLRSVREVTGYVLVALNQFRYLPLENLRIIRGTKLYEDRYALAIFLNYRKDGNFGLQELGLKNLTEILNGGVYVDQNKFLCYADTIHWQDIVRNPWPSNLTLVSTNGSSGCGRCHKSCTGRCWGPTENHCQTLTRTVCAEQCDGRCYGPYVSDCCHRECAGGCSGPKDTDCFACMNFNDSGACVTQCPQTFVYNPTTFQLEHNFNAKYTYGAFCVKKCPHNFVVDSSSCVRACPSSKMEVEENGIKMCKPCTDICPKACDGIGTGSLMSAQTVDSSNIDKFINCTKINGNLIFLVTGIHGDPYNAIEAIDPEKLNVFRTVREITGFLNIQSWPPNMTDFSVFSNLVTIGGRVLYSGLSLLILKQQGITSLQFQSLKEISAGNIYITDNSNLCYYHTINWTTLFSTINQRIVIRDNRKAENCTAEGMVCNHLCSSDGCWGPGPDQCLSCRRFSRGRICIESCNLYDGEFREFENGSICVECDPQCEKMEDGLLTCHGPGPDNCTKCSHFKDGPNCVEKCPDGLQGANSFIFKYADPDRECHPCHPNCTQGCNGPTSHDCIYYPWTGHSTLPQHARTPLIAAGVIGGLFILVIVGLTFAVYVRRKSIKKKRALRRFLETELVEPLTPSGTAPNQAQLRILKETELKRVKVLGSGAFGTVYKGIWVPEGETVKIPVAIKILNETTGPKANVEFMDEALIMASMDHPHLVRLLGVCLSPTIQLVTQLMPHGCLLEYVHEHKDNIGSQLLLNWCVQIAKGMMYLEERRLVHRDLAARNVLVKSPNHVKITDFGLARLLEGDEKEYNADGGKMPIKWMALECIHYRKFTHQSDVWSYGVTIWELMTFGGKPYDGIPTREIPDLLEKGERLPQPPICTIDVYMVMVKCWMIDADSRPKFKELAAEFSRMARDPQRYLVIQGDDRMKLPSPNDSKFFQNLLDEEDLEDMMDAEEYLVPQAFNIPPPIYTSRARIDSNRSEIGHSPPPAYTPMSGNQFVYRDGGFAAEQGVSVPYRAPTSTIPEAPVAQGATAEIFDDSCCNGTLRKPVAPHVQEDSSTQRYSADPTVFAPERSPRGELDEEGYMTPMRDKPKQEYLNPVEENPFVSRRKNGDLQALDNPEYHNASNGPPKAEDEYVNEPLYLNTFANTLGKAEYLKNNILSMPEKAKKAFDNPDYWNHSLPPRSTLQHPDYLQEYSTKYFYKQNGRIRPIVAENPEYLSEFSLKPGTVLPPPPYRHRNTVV
T1 sequence (P21860 20-1342 limits assumed): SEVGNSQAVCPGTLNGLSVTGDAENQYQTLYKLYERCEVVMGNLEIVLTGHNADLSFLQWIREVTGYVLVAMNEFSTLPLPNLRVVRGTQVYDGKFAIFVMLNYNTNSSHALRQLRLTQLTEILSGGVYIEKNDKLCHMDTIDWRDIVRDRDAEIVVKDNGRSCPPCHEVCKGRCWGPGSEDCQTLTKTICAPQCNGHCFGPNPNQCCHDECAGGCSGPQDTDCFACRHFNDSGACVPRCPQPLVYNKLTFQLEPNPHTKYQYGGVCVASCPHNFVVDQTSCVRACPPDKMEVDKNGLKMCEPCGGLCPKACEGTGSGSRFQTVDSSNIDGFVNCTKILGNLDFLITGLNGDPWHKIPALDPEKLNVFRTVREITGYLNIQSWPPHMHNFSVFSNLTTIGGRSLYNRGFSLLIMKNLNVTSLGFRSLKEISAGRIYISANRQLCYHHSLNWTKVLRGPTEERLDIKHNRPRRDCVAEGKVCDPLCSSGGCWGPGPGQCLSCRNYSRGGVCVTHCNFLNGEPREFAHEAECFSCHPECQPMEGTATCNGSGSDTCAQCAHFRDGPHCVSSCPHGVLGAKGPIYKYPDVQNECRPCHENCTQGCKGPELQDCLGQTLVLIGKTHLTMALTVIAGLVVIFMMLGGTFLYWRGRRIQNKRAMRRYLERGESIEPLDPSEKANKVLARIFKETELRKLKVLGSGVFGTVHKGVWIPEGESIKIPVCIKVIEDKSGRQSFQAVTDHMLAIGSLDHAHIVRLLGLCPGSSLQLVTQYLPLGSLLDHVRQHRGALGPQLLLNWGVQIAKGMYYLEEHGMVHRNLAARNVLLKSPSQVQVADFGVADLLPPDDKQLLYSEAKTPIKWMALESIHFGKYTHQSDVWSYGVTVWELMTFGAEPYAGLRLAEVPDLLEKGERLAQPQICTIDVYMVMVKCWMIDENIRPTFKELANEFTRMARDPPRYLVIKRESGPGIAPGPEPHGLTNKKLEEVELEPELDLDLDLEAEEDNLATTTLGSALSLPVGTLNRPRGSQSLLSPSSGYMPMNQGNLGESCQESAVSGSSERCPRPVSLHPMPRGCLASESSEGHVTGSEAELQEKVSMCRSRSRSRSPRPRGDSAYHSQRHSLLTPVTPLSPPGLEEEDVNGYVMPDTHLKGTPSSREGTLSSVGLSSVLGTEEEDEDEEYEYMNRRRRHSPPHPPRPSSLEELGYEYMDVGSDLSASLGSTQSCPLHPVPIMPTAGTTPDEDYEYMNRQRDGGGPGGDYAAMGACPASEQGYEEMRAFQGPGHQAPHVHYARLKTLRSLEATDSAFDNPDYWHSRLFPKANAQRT

binding result [1]: no binding | binding result [2]: no binding | binding result [3]: no binding
B1: Flag-CHK (Flag epitope-tagged CHK expressed in MCF-7 cells from pCDNA3 neo) (enzyme)
chain: DYKDDDDKMAGRGSLVSWRAFHGCDSAEELPRVSPRFLRAWHPPPVSARMPTRRWAPGTQCITKCEHTRPKPGELAFRKGDVVTILEACENKSWYRVKHHTSGQEGLLAAGALRDGEALSADPKLSLMPWFHGKISGQEAVQQLQPPEDGLFLVRESARHPGDYVLCVSFGRDVIHYRVLHRDGHLTIDEAVFFCNLMDMVEHYSKDKGAICTKLVRPKRKHGTKSAEEELARAGWLLNLQHLTLGAQIGEGEFGAVLQGEYLGQKVAVKNIKCDVTAQAFLDETAVMTKMQHENLVRLLGVILHQGLYIVMEHVSKGNLVNFLRTRGRALVNTAQLLQFSLHVAEGMEYLESKKLVHRDLAARNILVSEDLVAKVSDFGLAKAERKGLDSSRLPVKWTAPEALKHGFTSKSDVWSFGVLLWEVFSYGRAPYPKMSLKEVSEAVEKGYRMEPPEGCPGPVHVLMSSCWEAEPPAGHPSANWPRSWPGSYAVQVPQPPSQGRTPTVHLAPKPGALTPPGGPWPQRTERVESAAWGH
notes: An initiator Met stands before the Flag tag; also called intact CHK
